Test results reported in patent US20190359683A1.

Target: recombinant human cardiotrophin-like cytokine factor 1 (CLCF1) (human) (UniProt Q9UBD9)
Experiment: yeast display binding

recombinant human cardiotrophin-like cytokine factor 1 (CLCF1) (human), sequence (Q9UBD9 28-225): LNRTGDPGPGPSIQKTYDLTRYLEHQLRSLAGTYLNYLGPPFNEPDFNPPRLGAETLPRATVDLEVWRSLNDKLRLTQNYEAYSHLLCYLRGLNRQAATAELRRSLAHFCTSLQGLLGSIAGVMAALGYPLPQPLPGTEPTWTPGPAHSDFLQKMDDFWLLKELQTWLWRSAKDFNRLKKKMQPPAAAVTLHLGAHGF

yeast-displayed eCNTFR (variant 4 with Y177H and K178N) (from UniProt P26992 20-342)
Kd: 0.014 nM
